Results: patent US20150098945A1 (Daiichi Sankyo, published 2015)
Changes are numbered by the printed parent chain. Like-named read-outs stand apart in the source and are kept apart here. One block for each binder: values may come before it.

Key:
[1] = target: T1, rat ROBO4 (pCI-raROBO4-transfected HEK293 cells) (rat, UniProt Q80W87 38-949 at identity 0.93)); assay: flow cytometry (FC500), HEK293 cells transfected with pCI-raROBO4, FITC goat anti-human IgG Fc; control histogram IgG (human IgG)
T1 chain: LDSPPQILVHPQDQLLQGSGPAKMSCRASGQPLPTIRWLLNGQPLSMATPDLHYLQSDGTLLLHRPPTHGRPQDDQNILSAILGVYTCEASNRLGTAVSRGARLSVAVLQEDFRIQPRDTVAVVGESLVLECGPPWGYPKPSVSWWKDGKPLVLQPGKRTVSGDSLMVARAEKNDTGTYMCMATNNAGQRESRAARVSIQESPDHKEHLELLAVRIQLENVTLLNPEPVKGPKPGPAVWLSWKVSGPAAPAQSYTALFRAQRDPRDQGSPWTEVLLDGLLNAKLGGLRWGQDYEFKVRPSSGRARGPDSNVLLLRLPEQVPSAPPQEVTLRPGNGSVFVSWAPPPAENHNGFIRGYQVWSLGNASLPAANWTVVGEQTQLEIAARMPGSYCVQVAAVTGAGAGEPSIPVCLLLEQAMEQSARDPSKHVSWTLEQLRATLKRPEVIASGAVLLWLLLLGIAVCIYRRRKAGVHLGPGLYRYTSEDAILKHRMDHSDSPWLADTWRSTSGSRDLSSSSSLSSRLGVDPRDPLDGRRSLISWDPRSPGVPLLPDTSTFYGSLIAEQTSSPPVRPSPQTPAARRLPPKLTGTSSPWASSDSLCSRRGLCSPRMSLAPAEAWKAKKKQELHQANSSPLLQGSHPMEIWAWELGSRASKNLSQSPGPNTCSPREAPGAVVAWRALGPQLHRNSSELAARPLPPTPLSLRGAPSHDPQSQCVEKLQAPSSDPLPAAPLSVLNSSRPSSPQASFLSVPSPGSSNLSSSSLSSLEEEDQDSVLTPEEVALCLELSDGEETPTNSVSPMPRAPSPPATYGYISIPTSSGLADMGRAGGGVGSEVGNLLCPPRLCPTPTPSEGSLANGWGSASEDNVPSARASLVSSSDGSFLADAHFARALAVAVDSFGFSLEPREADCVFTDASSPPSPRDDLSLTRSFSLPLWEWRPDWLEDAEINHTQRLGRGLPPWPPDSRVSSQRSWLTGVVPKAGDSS

[2] = target: T1, rat ROBO4 (pCI-raROBO4-transfected …); assay: as above

binding result [1]: no binding (tested: 10 µg/mL)
B1: humanized MAb1 antibody H-1143 (antibody, human IgG2, kappa, V domains shown)
VH: EVQLVESGGGLVQPGGSLRLSCAASGFTFSTYAMSWVRQAPGKGLEWVATISQGGTYTYYPDSVKGRFTISRDNAKNTLYLQMNSLRAEDTAVYYCARLIYYDYLDYWGQGTLVTVSS
VL: DIVMTQSPLSLPVTLGEPASISCRSSQSLENENKNLYLNWYLQKPGQSPQLLIYRVSNRFSGVPDRFSGSGSGTDFTLKISRVEAEDVGVYYCLQVTHVPWTFGPGTKVDIKR
notes: Human IgG2 / kappa constant regions; also called hMAb1-H2-type heavy chain + hMAb1-L2-type light chain

binding result [2]: no binding (tested: 10 µg/mL)
B2: humanized MAb1 antibody H-2143 (antibody, human IgG2, kappa, V domains shown)
VH: B1 VH with G44R
VL: B1 VL
notes: Human IgG2 / kappa constant regions; also called hMAb1-H4-type heavy chain + hMAb1-L2-type light chain
